Molecular target: active (cleaved) presenilin of γ-secretase, marked at the active site by the inhibitor GTB (mouse (endogenous in primary hippocampal neurons))
Test: proximity ligation; in situ PLA with 200 nM GTB (photoreactive biotinylated γ-secretase inhibitor, UV-irradiated, probed with streptavidin-oligonucleotide PLUS) in place of the PS antibody and mouse nicastrin-CT antibody (anti-mouse MINUS probe); fixed, 0.4% CHAPSO-permeabilised mouse primary hippocampal neurons; 10 µM L-685,458 as competitor of GTB in the control

Which results are given for “nicastrin (from UniProt P57716 28-708) (natural protein)”?
PLA signals per cell: 214 signals/cell; fold increase of PLA signals over the sum of the negative controls (first way of calculating): 4.5 fold; fold increase of PLA signals over the sum of the negative controls (second way of calculating): 4.5 fold

From PMC3663845
